Laboratory results taken from patent CN115141278A (BIO THERA SOLUTIONS LTD, dated 2022).

Target: T1, 食蟹猴VISTA-Fc (cynomolgus monkey, UniProt A0A7N9IB00 33-194)
T1 construct: Bought reagent; also called VISTA-Fc(食蟹猴，Sino biological Inc); not shown: Fc part
T1 sequence: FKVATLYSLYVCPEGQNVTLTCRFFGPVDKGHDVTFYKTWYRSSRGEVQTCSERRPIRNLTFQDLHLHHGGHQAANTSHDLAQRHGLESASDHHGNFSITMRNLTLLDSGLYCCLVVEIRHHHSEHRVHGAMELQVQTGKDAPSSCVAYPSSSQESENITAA
Test: ELISA on coated VISTA-Fc, anti-human kappa-HRP detection

B1: 阳性参照抗体VSTB112 (antibody, V domains shown)
VH: QVQLVQSGAEVKKPGSSVKVSCKASGGTFSSYAISWVRQAPGQGLEWMGGIIPIFGTANYAQKFQGRVTITADESTSTAYMELSSLRSEDTAVYYCARSSYGWSYEFDYWGQGTLVTVSS
VL: DIQMTQSPSSLSASVGDRVTITCRASQSIDTRLNWYQQKPGKAPKLLIYSASSLQSGVPSRFSGSGSGTDFTLTISSLQPEDFATYYCQQSAYNPITFGQGTKVEIKR
With B1 as the binder, how does the EC50 read?
The EC50 was 0.065 µg/mL.
